Measurements published in patent publication US20090041770A1.

Molecular target: human FcRn fused to a His-tag and glutathione S transferase (FcRn-His-GST), complex of FcRn heavy chain with beta-2-microglobulin (human) (UniProt P55899)
Assay: AlphaScreen competition, […] NaCl

Row | FcRn Binding Fold-Increase | Substance
1 | 44 | P257L AC10 - IgG1 (antibody)
2 | 46.1 | V308F AC10 - IgG1 (antibody)

Molecular target: human FcRn fused to a His-tag and glutathione S transferase (FcRn-His-GST), complex of FcRn heavy chain with beta-2-microglobulin (human) (UniProt P55899)
Assay: AlphaScreen competition, 25 mM NaCl

Row | Medan Fold Increase | Substance
3 | 0.89 | ^281D (antibody)
4 | 2.13 | ^281S/V308F (antibody)
5 | 1.46 | ^281S/V308Y (antibody)
6 | 0.56 | ^281T (antibody)
